According to patent US20230201308A1, “TREATMENT OF CORONAVIRUS INFECTION WITH […]” (Eiger Biopharmaceuticals, Inc., priority 2020, published 2023):
Read-outs that look alike come from different tables or passages of the source.

System: SARS-CoV-2
Settings: for All cause death or hospitalization for COVID-19: Bayes prob, Dichotomous / All cause death or hospitalization for COVID-19: Bayes prob, TTE / All cause death or hospitalization for COVID-19: HR (95% CrI), TTE / All cause death or hospitalization for COVID-19: RR (95% CrI), Dichotomous / ER visit ≥6 h or hospitalization due to COVID-19: Bayes prob, Dichotomous / ER visit ≥6 h or hospitalization due to COVID-19: Bayes prob, TTE / ER visit ≥6 h or hospitalization due to COVID-19: HR (95% CrI), TTE / ER visit ≥6 h or hospitalization due to COVID-19: RR (95% CrI), Dichotomous: vs placebo
[1] = ITT preliminary, n=916 vs placebo 1020, 28 days
[2] = ITT preliminary, n=916 vs placebo 1020, 28 days, listed as Interferon lambda
[3] = ITT preliminary, n=916 vs placebo 1020, 28 days, listed as Lambda
[4] = Treated within 3 days of symptom onset, n=539 vs placebo 586
[5] = Treated within 5 days of symptom onset, n=800 vs placebo 879

B1: pegylated interferon lambda-1a (protein)
chain: MKPTTTGKGCHIGRFKSLSPQELASFKKARDALEESLKLKNWSCSSPVFPGNWDLRLLQVRERPVALEAELALTLKVLEAAAGPALEDVLDQPLHTLHHILSQLQACIQPQPTAGPRPRGRLHHWLHRLQEAPKKESAGCLEASVTFNLFRLLTRDLKYVADGNLSLRTSTHPEST
modifications: PEG
notes: 180 mcg subcutaneous injection
Death or hospitalization due to COVID-19, % of patients [1]: (2.4%)
Death or hospitalization due to COVID-19, RR (95% CrI) vs placebo [1]: 0.61 (0.36, 0.99)
Hospitalization for COVID-19, RR (95% CrI) vs placebo [1]: 0.58 (0.34, 0.95)
Hospitalization or ER (any duration) for COVID-19, % of patients [1]: (10.6%)
Hospitalization or ER (any duration) for COVID-19, Pr (Superiority) [1]: 0.984
Hospitalization or ER (any duration) for COVID-19, RR (95% CrI) vs placebo [1]: 0.77 (0.60, 0.98)
Hospitalization or ER ≥6 h for COVID-19, Pr (Superiority) [1]: 0.999
Hospitalization or ER ≥6 h for COVID-19, RR (95% CrI) vs placebo [1]: 0.50 (0.31, 0.77)
Death due to COVID-19, % of patients [2]: (0.1%)
Hospitalization for COVID-19, % of patients [2]: (2.3%)
Hospitalization or ER ≥6 h for COVID-19, % of patients [2]: (2.7%)
Death due to COVID-19, % of patients [3]: 0.1%
Hospitalization for COVID-19, % of patients [3]: 2.3%
Hospitalization or ER ≥6 h for COVID-19, % of patients [3]: 2.7%
All cause death or hospitalization for COVID-19: events/patients (Omicron and not vaccinated): 0/9
ER visit ≥6 h or hospitalization due to COVID-19: events/patients (Omicron and not vaccinated): 0/9
All cause death or hospitalization for COVID-19: Bayes prob, Dichotomous (Omicron and not vaccinated): 0.532
All cause death or hospitalization for COVID-19: Bayes prob, TTE (Omicron and not vaccinated): 0.912
All cause death or hospitalization for COVID-19: HR (95% CrI), TTE (Omicron and not vaccinated): 0.00 (0.00, 4.43)
All cause death or hospitalization for COVID-19: RR (95% CrI), Dichotomous (Omicron and not vaccinated): 0.90 (0.03, 10.04)
ER visit ≥6 h or hospitalization due to COVID-19: Bayes prob, Dichotomous (Omicron and not vaccinated): 0.532
ER visit ≥6 h or hospitalization due to COVID-19: Bayes prob, TTE (Omicron and not vaccinated): 0.912
ER visit ≥6 h or hospitalization due to COVID-19: HR (95% CrI), TTE (Omicron and not vaccinated): 0.00 (0.00, 4.43)
ER visit ≥6 h or hospitalization due to COVID-19: RR (95% CrI), Dichotomous (Omicron and not vaccinated): 0.90 (0.03, 10.04)
All cause death or hospitalization for COVID-19: events/patients (Omicron and onset ≤3 days): 0/281
ER visit ≥6 h or hospitalization due to COVID-19: events/patients (Omicron and onset ≤3 days): 0/281
All cause death or hospitalization for COVID-19: Bayes prob, Dichotomous (Omicron and onset ≤3 days): 0.977
All cause death or hospitalization for COVID-19: Bayes prob, TTE (Omicron and onset ≤3 days): 0.9982
All cause death or hospitalization for COVID-19: HR (95% CrI), TTE (Omicron and onset ≤3 days): 0.00 (0.00, 0.35)
All cause death or hospitalization for COVID-19: RR (95% CrI), Dichotomous (Omicron and onset ≤3 days): 0.14 (0.00, 0.96)
ER visit ≥6 h or hospitalization due to COVID-19: Bayes prob, Dichotomous (Omicron and onset ≤3 days): 0.998
ER visit ≥6 h or hospitalization due to COVID-19: Bayes prob, TTE (Omicron and onset ≤3 days): 0.9999
ER visit ≥6 h or hospitalization due to COVID-19: HR (95% CrI), TTE (Omicron and onset ≤3 days): 0.00 (0.00, 0.17)
ER visit ≥6 h or hospitalization due to COVID-19: RR (95% CrI), Dichotomous (Omicron and onset ≤3 days): 0.08 (0.00, 0.50)
All cause death or hospitalization for COVID-19: events/patients (Omicron and vaccinated): 2/428
ER visit ≥6 h or hospitalization due to COVID-19: events/patients (Omicron and vaccinated): 2/428
All cause death or hospitalization for COVID-19: Bayes prob, Dichotomous (Omicron and vaccinated): 0.876
All cause death or hospitalization for COVID-19: Bayes prob, TTE (Omicron and vaccinated): 0.911
All cause death or hospitalization for COVID-19: HR (95% CrI), TTE (Omicron and vaccinated): 0.34 (0.05, 1.52)
All cause death or hospitalization for COVID-19: RR (95% CrI), Dichotomous (Omicron and vaccinated): 0.46 (0.09, 1.69)
ER visit ≥6 h or hospitalization due to COVID-19: Bayes prob, Dichotomous (Omicron and vaccinated): 0.999
ER visit ≥6 h or hospitalization due to COVID-19: Bayes prob, TTE (Omicron and vaccinated): 0.9998
ER visit ≥6 h or hospitalization due to COVID-19: HR (95% CrI), TTE (Omicron and vaccinated): 0.11 (0.02, 0.42)
ER visit ≥6 h or hospitalization due to COVID-19: RR (95% CrI), Dichotomous (Omicron and vaccinated): 0.17 (0.04, 0.53)
All cause death or hospitalization for COVID-19: events/patients (Omicron subgroup): 2/439
ER visit ≥6 h or hospitalization due to COVID-19: events/patients (Omicron subgroup): 2/439
All cause death or hospitalization for COVID-19: Bayes prob, Dichotomous (Omicron subgroup): 0.914
All cause death or hospitalization for COVID-19: Bayes prob, TTE (Omicron subgroup): 0.9477
All cause death or hospitalization for COVID-19: HR (95% CrI), TTE (Omicron subgroup): 0.29 (0.04, 1.27)
All cause death or hospitalization for COVID-19: RR (95% CrI), Dichotomous (Omicron subgroup): 0.41 (0.08, 1.45)
ER visit ≥6 h or hospitalization due to COVID-19: Bayes prob, Dichotomous (Omicron subgroup): >0.9999
ER visit ≥6 h or hospitalization due to COVID-19: Bayes prob, TTE (Omicron subgroup): 0.9999
ER visit ≥6 h or hospitalization due to COVID-19: HR (95% CrI), TTE (Omicron subgroup): 0.11 (0.02, 0.43)
ER visit ≥6 h or hospitalization due to COVID-19: RR (95% CrI), Dichotomous (Omicron subgroup): 0.17 (0.04, 0.50)
risk reduction, hospitalization alone (Phase 3 study, single s.c. dose within 7 days of symptom onset): 44%
Log odds (95% CrI) vs Placebo, Bayesian logistic regression (Table 11 Model 1: Treatment alone): −0.69 (−1.17, −0.26)
Log odds vs Placebo, Bayesian logistic regression (Table 11 Model 2: Unvaccinated as an effect-modifier): −0.67
OR (95% CrI) vs Placebo, Bayesian logistic regression (Table 12 Model 1: Treatment alone): 0.50 (0.31, 0.77)
OR (95% CrI) vs Placebo, Bayesian logistic regression (Table 12 Model 2: Treatment + Vaccination): 0.49 (0.29, 0.78)
OR (95% CrI) vs Placebo, Bayesian logistic regression (Table 12 Model 3: Treatment + Vaccination + Early onset (≤3 days)): 0.48 (0.29, 0.77)
OR (95% CrI) vs Placebo, Bayesian logistic regression (Table 12 Model 4: Treatment + Vaccination + Early onset (≤5 days)): 0.48 (0.29, 0.77)
Death due to COVID-19, % of patients [4]: (0%)
Death due to COVID-19, RR (95% CrI) vs placebo [4]: 0.21 (0.01, 1.66)
Death or hospitalization due to COVID-19, % of patients [4]: (1.5%)
Death or hospitalization due to COVID-19, RR (95% CrI) vs placebo [4]: 0.40 (0.18, 0.83)
Hospitalization for COVID-19, % of patients [4]: (1.5%)
Hospitalization for COVID-19, RR (95% CrI) vs placebo [4]: 0.40 (0.18, 0.82)
Hospitalization or ER (any duration) for COVID-19, % of patients [4]: (10%)
Hospitalization or ER (any duration) for COVID-19, Pr (Superiority) [4]: 0.964
Hospitalization or ER (any duration) for COVID-19, RR (95% CrI) vs placebo [4]: 0.75 (0.54, 1.03)
Hospitalization or ER ≥6 h for COVID-19, % of patients [4]: (2%)
Hospitalization or ER ≥6 h for COVID-19, Pr (Superiority) [4]: 0.996
Hospitalization or ER ≥6 h for COVID-19, RR (95% CrI) vs placebo [4]: 0.43 (0.21, 0.81)
Death due to COVID-19, % of patients [5]: (0.1%)
Death due to COVID-19, RR (95% CrI) vs placebo [5]: 0.39 (0.05, 1.96)
Death or hospitalization due to COVID-19, % of patients [5]: (2.2%)
Death or hospitalization due to COVID-19, RR (95% CrI) vs placebo [5]: 0.56 (0.32, 0.96)
Hospitalization for COVID-19, % of patients [5]: (2.1%)
Hospitalization for COVID-19, RR (95% CrI) vs placebo [5]: 0.53 (0.29, 0.91)
Hospitalization or ER (any duration) for COVID-19, % of patients [5]: (10.2%)
Hospitalization or ER (any duration) for COVID-19, Pr (Superiority) [5]: 0.992
